Laboratory results reported in the supplement of paper PMC5998384.

Columns and labels:
[1] = system: HeLa Kyoto; assay: melting temperature (median over replicates), in situ; higher = more thermally stable
[2] = system: HeLa Kyoto; assay: solubility change mitosis vs G1/S (difference of NP-40 vs SDS log2 ratios) (log2 ratio difference); higher = more soluble in mitosis
[3] = system: HeLa Kyoto; assay: solubility in G1/S (NP-40 vs SDS abundance) (log2 ratio); higher = more soluble; settings: cell cycle stage: G1/S
[4] = system: HeLa Kyoto; assay: thermal stability score vs G1/S (z-score of summed log2 fold changes over temperatures); higher = more thermally stable than in G1/S
[5] = cell cycle stage: early G1 (4.5 h after nocodazole release)
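Throughout, for melting temperature (median over replicates), in situ: HeLa Kyoto cells synchronized by double thymidine or nocodazole block, proteins quantified by TMT10plex mass spectrometry, three independent biological replicates.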
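Throughout, for solubility change mitosis vs G1/S (difference of NP-40 vs SDS log2 ratios): synchronized HeLa Kyoto cells (double thymidine block for G1/S, nocodazole release for mitosis), protein amounts in NP-40 versus SDS lysates quantified by mass spectrometry, three biological replicates.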
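Throughout, for solubility in G1/S (NP-40 vs SDS abundance): HeLa Kyoto cells arrested at G1/S by double thymidine block, proteins quantified by TMT10plex mass spectrometry in mild NP-40 versus SDS extracts, three biological replicates.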
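Throughout, for thermal stability score vs G1/S (z-score of summed log2 fold changes over temperatures): synchronized HeLa Kyoto cells, proteins quantified by TMT10plex mass spectrometry, three biological replicates, mitosis taken 0.5 h after nocodazole release, G1/S directly after double thymidine block.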

Which melting temperature ([1]; cell cycle stage: G1/S) does the source give for “MEGAGYRVVFEKGGVYLHTSAKKYQDRDSLIAGVIRVVEKDNDVLLHWAPVEEAGDSTQILFSKKDSSGGDSCASEEEPTFDPGYEPDWAVISTVRPQLCHSEPTRGAEPSCPQGSWAFSVSLGELKSIRRSKPGLSWAYLVLVTQAGGSLPALHFHRGGTRALLRVLSRYLLLASSPQDSRLYLVFPHDSSALSNSFHHLQLFDQDSSNVVSRFLQDPYSTTFSSFSRVTNFFRGALQPQPEGAASDLPPPPDDEPEPGFEVISCVELGPRPTVERGPPVTEEEWARHVGPEGRLQQVPELKNRIFSGGLSPSLRREAWKFLLGYLSWEGTAEEHKAHIRKKTDEYFRMKLQWKSVSPEQERRNSLLHGYRSLIERDVSRTDRTNKFYEGPENPGLGLLNDILLTYCMYHFDLGYVQGMSDLLSPILYVIQNEVDAFWCFCGFMELVQGNFEESQETMKRQLGRLLLLLRVLDPLLCDFLDSQDSGSLCFCFRWLLIWFKREFPFPDVLRLWEVLWTGLPGPNLHLLVACAILDMERDTLMLSGFGSNEILKHINELTMKLSVEDVLTRAEALHRQLTACPELPHNVQEILGLAPPAEPHSPSPTASPLPLSPTRAPPTPPPSTDTAPQPDSSLEILPEEEDEGADS [TBC1D17]” here?
Its melting temperature is 51.4 °C.

What about the melting temperature ([1]; cell cycle stage: mitosis) of the same sequence?
The melting temperature was 50.7 °C.

And the “solubility change mitosis (log2)” value [2]?
Its value is -0.0875.

And the “solubility in G1/S (log2)” value [3]?
Its value is -0.0906.

What about the thermal stability score [4, 5] of the same sequence?
The thermal stability score was -0.527.

What about the thermal stability score ([4]; cell cycle stage: mitosis) of the same sequence?
The thermal stability score was -0.608.

For “MEVTGDAGVPESGEIRTLKPCLLRRNYSREQHGVAASCLEDLRSKACDILAIDKSLTPVTLVLAEDGTIVDDDDYFLCLPSNTKFVALASNEKWAYNNSDGGTAWISQESFDVDETDSGAGLKWKNVARQLKEDLSSIILLSEEDLQMLVDAPCSDLAQELRQSCATVQRLQHTLQQVLDQREEVRQSKQLLQLYLQALEKEGSLLSKQEESKAAFGEEVDAVDTGISRETSSDVALASHILTALREKQAPELSLSSQDLELVTKEDPKALAVALNWDIKKTETVQEACERELALRLQQTQSLHSLRSISASKASPPGDLQNPKRARQDPT [DFFA]”, which melting temperature ([1]; cell cycle stage: G1/S) is on record?
The melting temperature was 54.2 °C.

What about the melting temperature ([1]; cell cycle stage: mitosis) of the same sequence?
The melting temperature was 54.5 °C.

What about the “solubility change mitosis (log2)” value [2] of the same sequence?
Its value is 0.0192.

And the “solubility in G1/S (log2)” value [3]?
The value was 0.392.

What about the thermal stability score [4, 5] of the same sequence?
The thermal stability score was -1.44.

What about the thermal stability score ([4]; cell cycle stage: mitosis) of the same sequence?
Its thermal stability score is -0.858.

Which melting temperature ([1]; cell cycle stage: G1/S) does the source give for “MLLPNILLTGTPGVGKTTLGKELASKSGLKYINVGDLAREEQLYDGYDEEYDCPILDEDRVVDELDNQMREGGVIVDYHGCDFFPERWFHIVFVLRTDTNVLYERLETRGYNEKKLTDNIQCEIFQVLYEEATASYKEEIVHQLPSNKPEELENNVDQILKWIEQWIKDHNS [AK6]” here?
The melting temperature was 46.9 °C.

What about the melting temperature ([1]; cell cycle stage: mitosis) of the same sequence?
The melting temperature was 49.8 °C.

What about the “solubility change mitosis (log2)” value [2] of the same sequence?
Its value is -0.0162.

What about the “solubility in G1/S (log2)” value [3] of the same sequence?
Its value is 0.193.

What about the thermal stability score [4, 5] of the same sequence?
Its thermal stability score is 1.22.

What about the thermal stability score ([4]; cell cycle stage: mitosis) of the same sequence?
The thermal stability score was 1.07.

With “MATNFLAHEKIWFDKFKYDDAERRFYEQMNGPVAGASRQENGASVILRDIARARENIQKSLAGSSGPGASSGTSGDHGELVVRIASLEVENQSLRGVVQELQQAISKLEARLNVLEKSSPGHRATAPQTQHVSPMRQVEPPAKKPATPAEDDEDDDIDLFGSDNEEEDKEAAQLREERLRQYAEKKAKKPALVAKSSILLDVKPWDDETDMAQLEACVRSIQLDGLVWGASKLVPVGYGIRKLQIQCVVEDDKVGTDLLEEEITKFEEHVQSVDIAAFNKI [EEF1D]” as the sequence, how does the melting temperature ([1]; cell cycle stage: G1/S) read?
Its melting temperature is 50.6 °C.

And the melting temperature ([1]; cell cycle stage: mitosis)?
Its melting temperature is 50.6 °C.

And the “solubility change mitosis (log2)” value [2]?
The value was 0.255.

And the “solubility in G1/S (log2)” value [3]?
The value was 0.332.

What about the thermal stability score [4, 5] of the same sequence?
The thermal stability score was 1.79.

What about the thermal stability score ([4]; cell cycle stage: mitosis) of the same sequence?
The thermal stability score was 2.76.

What does the source list for “MSWGTELWDQFDNLEKHTQWGIDILEKYIKFVKERTEIELSYAKQLRNLSKKYQPKKNSKEEEEYKYTSCKAFISNLNEMNDYAGQHEVISENMASQIIVDLARYVQELKQERKSNFHDGRKAQQHIETCWKQLESSKRRFERDCKEADRAQQYFEKMDADINVTKADVEKARQQAQIRHQMAEDSKADYSSILQKFNHEQHEYYHTHIPNIFQKIQEMEERRIVRMGESMKTYAEVDRQVIPIIGKCLDGIVKAAESIDQKNDSQLVIEAYKSGFEPPGDIEFEDYTQPMKRTVSDNSLSNSRGEGKPDLKFGGKSKGKLWPFIKKNKLMSLLTSPHQPPPPPPASASPSAVPNGPQSPKQQKEPLSHRFNEFMTSKPKIHCFRSLKRGLSLKLGATPEDFSNLPPEQRRKKLQQKVDELNKEIQKEMDQRDAITKMKDVYLKNPQMGDPASLDHKLAEVSQNIEKLRVETQKFEAWLAEVEGRLPARSEQARRQSGLYDSQNPPTVNNCAQDRESPDGSYTEEQSQESEMKVLATDFDDEFDDEEPLPAIGTCKALYTFEGQNEGTISVVEGETLYVIEEDKGDGWTRIRRNEDEEGYVPTSYVEVCLDKNAKDS [FNBP1]”?
melting temperature ([1]; cell cycle stage: G1/S): 49.7 °C; melting temperature ([1]; cell cycle stage: mitosis): 49.4 °C; solubility change mitosis (log2) [2]: -0.129; solubility in G1/S (log2) [3]: 0.298; thermal stability score [4, 5]: 0.62; thermal stability score ([4]; cell cycle stage: mitosis): 0.929

Which results are given for “MLRWLRDFVLPTAACQDAEQPTRYETLFQALDRNGDGVVDIGELQEGLRNLGIPLGQDAEEKIFTTGDVNKDGKLDFEEFMKYLKDHEKKMKLAFKSLDKNNDGKIEASEIVQSLQTLGLTISEQQAELILQSIDVDGTMTVDWNEWRDYFLFNPVTDIEEIIRFWKHSTGIDIGDSLTIPDEFTEDEKKSGQWWRQLLAGGIAGAVSRTSTAPLDRLKIMMQVHGSKSDKMNIFGGFRQMVKEGGIRSLWRGNGTNVIKIAPETAVKFWAYEQYKKLLTEEGQKIGTFERFISGSMAGATAQTFIYPMEVMKTRLAVGKTGQYSGIYDCAKKILKHEGLGAFYKGYVPNLLGIIPYAGIDLAVYELLKSYWLDNFAKDSVNPGVMVLLGCGALSSTCGQLASYPLALVRTRMQAQAMLEGSPQLNMVGLFRRIISKEGIPGLYRGITPNFMKVLPAVGISYVVYENMKQTLGVTQK [SLC25A24]”?
melting temperature ([1]; cell cycle stage: G1/S): 56.8 °C; melting temperature ([1]; cell cycle stage: mitosis): 57.8 °C; solubility change mitosis (log2) [2]: -0.0619; solubility in G1/S (log2) [3]: 0.296; thermal stability score [4, 5]: -1.13; thermal stability score ([4]; cell cycle stage: mitosis): -0.922
